# Columns and labels:
# human serum proteins = assay: Serum protein (albumin) binding by ultrafiltration, human serum; type: in vitro ADME; details: 37° C.
# Protocol: The devices were pre-treated with PBS containing Tween 20 (5% v/v) as disclosed in Hausner 2007, followed by triplicate rinses with PBS. An aliquot of each formulated radiotracer in PBS (≤25 μL, 20-60 KBq) was thoroughly mixed with 0.5 mL serum at 37° C. in a microfuge tube. The mixture was incubated at 37° C. for 5 min and an aliquot (50 μL) of was transferred to a tube for γ-counting. The remaining sample was transferred to a Centrifree Ultrafiltration device and centrifuged for 40 min. at 1500×g at ambient temperature (20-24° C.). An aliquot (50 μL) of the filtrate was transferred to a tube for γ-counting. For each radiotracer, a blank was run using 0.5 mL PBS/Tween 20 (5% v/v) instead of serum (n=4) to determine non-specific binding. Following γ-counting, the protein-bound radioactivity was calculated by subtracting the counts measured in the filtrate aliquot (i.e., not protein bound) from the counts in the corresponding serum aliquot. The data are expressed as mean±standard deviation of fraction of radioactivity bound to protein after subtraction of non-specific binding determined in the blank.
# αvβ6 (+) BxPC-3 tumors = assay: In vivo targeted radionuclide therapy; design: species or system mice
# Protocol: (§1) Female nu/nu nude mice (6-8 weeks old) were purchased from Charles River Laboratories (Wilmington, MA, USA) and handled according to the UC Davis Institutional Animal Care and Use Committee. BxPC-3 cells (5×10^6) in 100 μl 1:1 GFR-Matrigel: serum-free RPMI were implanted subcutaneously into the left shoulder flank and allowed to grow for approximately 2 weeks (therapy study) and 3 weeks (0.5-1 cm in diameter, for imaging and biodistribution studies). All cells were evaluated with flow cytometry before injection to confirm integrin expression levels. Food and water were available ad libitum.
# For in vivo targeted radionuclide therapy, mice were implanted subcutaneously with BxPc-3 tumor cells 14 days before start of treatment. Mice were randomly chosen and divided into four treatment groups: Control Saline (Group 1, n=5); Control Peptide DOTA-ABM-5G (Group 2, n=6); 1×74 MBq [^177Lu]Lu DOTA-ABM-5G (Group 3, n=10); and 2×37 MBq [^177Lu]Lu DOTA-ABM-5G (Group 4, n=7). Average tumor volume at the start of the treatment was 14-218 mm^3. Group 2 received 20 μg of peptide DOTA-ABM-5G per mouse as a control. Group 3 received 74 MBq on day 14 post-tumor implant (treatment day 0), and Group 4 received two doses of 37 MBq on day 14 and 21 post-tumor implant (treatment days 0 and 7), at a specific activity of 18.5 MBq/nmol. Body weights and tumor volumes were measured the day before treatment, and twice a week post-treatment throughout the study. Tumor volume (TV) was determined according to the equation TV=(π/6)*L*W*H, where L is the longest axis, W is the axis perpendicular to L and H is perpendicular to the plane of L and W. End point determination was based on the longest axis of TV exceeding 2 cm, active ulceration, or compromised health of the mouse, including >20% loss of body weight from the start of the study. Survival curves are depicted as a Kaplan-Meier plot, using start of treatment as day 0.
# [1] = tested on: integrin αvβ6(+) BxPC-3 cells; assay: Cell binding, internalization and efflux; details: 37° C.
# BxPC-3 (αvβ6 (+)) tumors = assay: Biodistribution in mice bearing BxPC-3 tumors; type: in vivo
# Protocol: as §1
# For blocking studies, respective non-chelated cold peptide (30 mg/kg, 10 mg/mL (DOTA-5G) and 48 mg/kg, 16 mg/mL (DOTA-ABM-5G) solution in PBS) was injected 10 min. before the formulated radiotracer. At each time point, the mice (n=3/time point/radiotracer) were anesthetized and sacrificed. The tissues were collected, rinsed with PBS, and the radioactivity of each measured with a gamma counter. Radioactivity concentrations were calibrated, decay-corrected, and expressed as percent of injected dose per gram of tissue (% ID/g).
structure (smiles),measurement,setting,value
CNC(=O)C(CCCCNC(=O)C(CC(=O)O)NC(=O)CCCNC(=O)CCCc1ccc(I)cc1)NC(=O)CN1CCN2CCN3CCN(CC1)CC(=O)[O][177Lu]([O]C(=O)C2)[O]C(=O)C3 (centres unmarked) [[^177Lu]Lu DOTA-ABM-5G],albumin (serum protein) binding,human serum proteins,58.1±0.4%
same,median survival post-treatment,"αvβ6 (+) BxPC-3 tumors; Group 3, 1×74 MBq",82 days
same,median survival post-treatment,"αvβ6 (+) BxPC-3 tumors; Group 4, 2×37 MBq (days 0 and 7)",113 days
same,adverse events and weight loss during the study,"αvβ6 (+) BxPC-3 tumors; any group, 120 days",No adverse events and weight loss
same,adverse reaction to treatment in blood chemistry,"αvβ6 (+) BxPC-3 tumors; mouse, in vivo",no adverse reaction
same,bound to BxPC-3 cells (of total radioactivity),[1]; 1 h,29±1.4%
same,internalized into BxPC-3 cells (of total radioactivity),[1]; 1 h,21.6±0.01%
same,efflux from BxPC-3 cells,[1]; at 1 hour post-internalization,5%
same,BxPC-3/kidney ratio,BxPC-3 (αvβ6 (+)) tumors; 1 h p.i.,0.22±0.05
same,BxPC-3/large intestine ratio,BxPC-3 (αvβ6 (+)) tumors; 1 h p.i.,0.77±0.25
same,BxPC-3/stomach ratio,BxPC-3 (αvβ6 (+)) tumors; 1 h p.i.,0.50±0.08
same,uptake Blood,BxPC-3 (αvβ6 (+)) tumors; 1 h p.i.,5.36±0.71 % ID/g
same,uptake BxPC-3 tumor,BxPC-3 (αvβ6 (+)) tumors; 1 h p.i.,4.54±0.42 % ID/g
same,uptake Kidneys,BxPC-3 (αvβ6 (+)) tumors; 1 h p.i.,20.89±3.1 % ID/g
same,uptake Stomach,BxPC-3 (αvβ6 (+)) tumors; 1 h p.i.,9.16±0.58 % ID/g
same,BxPC-3/kidney ratio,BxPC-3 (αvβ6 (+)) tumors; 72 h p.i.,0.60±0.02
same,BxPC-3/large intestine ratio,BxPC-3 (αvβ6 (+)) tumors; 72 h p.i.,1.77±0.26
same,BxPC-3/stomach ratio,BxPC-3 (αvβ6 (+)) tumors; 72 h p.i.,1.16±0.30
same,uptake Blood,BxPC-3 (αvβ6 (+)) tumors; 72 h p.i.,0.01±0.00 % ID/g
same,uptake BxPC-3 tumor,BxPC-3 (αvβ6 (+)) tumors; 72 h p.i.,5.29±0.75 % ID/g
same,uptake Kidneys,BxPC-3 (αvβ6 (+)) tumors; 72 h p.i.,8.84±1.15 % ID/g
same,uptake Stomach,BxPC-3 (αvβ6 (+)) tumors; 72 h p.i.,4.76±1.22 % ID/g
same,uptake in BxPC-3 tumor as compared to [^177Lu]Lu DOTA-5G,BxPC-3 (αvβ6 (+)) tumors; at all times (1-72 h),at least 4 fold
